Measurements reported in the supplement of paper PMC10724198.
± gives the standard deviation of the averaged measurements.

Tested on: Saccharomyces cerevisiae
Assay: protein stability index of tFT-peptide fusion (C-terminal peptide) (PSI (0-1 scale)); higher = more stable (slower turnover)
Conditions: genetic background: wild type; temperature: 30 C
Protocol: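 Multiplexed protein stability (MPS) profiling in S. cerevisiae. Random 12-aa peptides (tFT-X12 library) are fused to the C-terminus of a sfGFP-mCherry tandem fluorescent timer, after mCherry and a GGGS linker. Cells are FACS-sorted into 8 mCherry/sfGFP bins and deep-sequenced. The protein stability index (PSI) is the read-weighted bin average, scaled from 0 (unstable) to 1 (stable). Only peptides with >10 reads are reported; cells were grown at 30 °C in SC-His with glucose.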
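Also: PSI is a weighted mean of sequencing reads over stability bins, variants kept only with over 10 reads, mCherry proximal and sfGFP distal, peptide attached via GGGS linker.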

LSPFPLFAPFNF
protein stability index: 0.635 ± 0.039

GGGVWYFSWSFC
protein stability index: 0.595 ± 0.045

PPHLIPTLLSPP
protein stability index: 0.721 ± 0.02

VHWVVFSVPRQA
protein stability index: 0.73 ± 0.033

HRILILSGLRAG
protein stability index: 0.626 ± 0.041

AGGLHRSRPCVD
protein stability index: 0.709 ± 0.024

EQSWEVWGRGQG
protein stability index: 0.744 ± 0.022

EVGHLILYKIGC
protein stability index: 0.648 ± 0.017

LGHVHLIGDIVC
protein stability index: 0.7042 ± 0.0039

NFIKCASDIRID
protein stability index: 0.67 ± 0.027

LLPPPSRTPPPS
protein stability index: 0.688 ± 0.02

PILFHIPHRHVP
protein stability index: 0.749 ± 0.25

NDAKQKRLTFET
protein stability index: 0.671 ± 0.048

IGKWIKKKKQKG
protein stability index: 0.631 ± 0.023

CYMFFNPSFNRR
protein stability index: 0.712 ± 0.017

KLSIWRADKDLE
protein stability index: 0.688 ± 0.015

PSPALPSLSTPL
protein stability index: 0.669 ± 0.047

PDCSFLNSTFTS
protein stability index: 0.739 ± 0.088

MRSTFFFLQHRH
protein stability index: 0.614 ± 0.013

KKKEKQRQSKRR
protein stability index: 0.689 ± 0.026

VSGFVILDSTCP
protein stability index: 0.671 ± 0.025

AANRCSVLPLGF
protein stability index: 0.601 ± 0.041

PIPPDGGSPPSP
protein stability index: 0.714

IKKQTKTKKKEF
protein stability index: 0.65 ± 0.058

RPTSPCPNHRLE
protein stability index: 0.667 ± 0.097

SLLLPTPPPFRP
protein stability index: 0.644 ± 0.028

NTCKMRTRNIKA
protein stability index: 0.635 ± 0.0068

RTSQLVSRATLD
protein stability index: 0.691 ± 0.019

SRFSRLHPAFPV
protein stability index: 0.759 ± 0.014

HFGPRTTLCAPD
protein stability index: 0.666 ± 0.034

AGGLCLGGVGLG
protein stability index: 0.674 ± 0.079

PFESSRRLAPSP
protein stability index: 0.722 ± 0.035

TPLPLRFRCPYS
protein stability index: 0.639 ± 0.04

LCSPKPASAPGH
protein stability index: 0.668 ± 0.032

WWSASGGQDVLK
protein stability index: 0.67 ± 0.061

SFFCSKCPLLCP
protein stability index: 0.533 ± 0.016

RDELRTSAGKGS
protein stability index: 0.659 ± 0.055

RFPSRLLVPPPP
protein stability index: 0.698 ± 0.077

PPRPPPPPRSTS
protein stability index: 0.672 ± 0.024

EKGRVGLKIIKE
protein stability index: 0.695 ± 0.038

CLGLVSNCGLYV
protein stability index: 0.674 ± 0.041

VLALPSSPLLPS
protein stability index: 0.643 ± 0.1

WESWGPDWLCVG
protein stability index: 0.769 ± 0.035

PPPHRPWSPVPP
protein stability index: 0.7158 ± 0.0034

TRCGGRWGEGWR
protein stability index: 0.72 ± 0.028

GFATCSFPVCRV
protein stability index: 0.661 ± 0.027

RALRAGVGVRAC
protein stability index: 0.662 ± 0.08

PRSPPHLRWTRY
protein stability index: 0.686 ± 0.013

AAPSPHPLNSLS
protein stability index: 0.687 ± 0.036

RAGKEGRVSSSK
protein stability index: 0.6619 ± 0.0057

DIYNRNKRRDIT
protein stability index: 0.644 ± 0.0067

IGLRCPPPKPYA
protein stability index: 0.696 ± 0.035

FPVTAPPRPFLF
protein stability index: 0.639 ± 0.014

GGYGGGWRGGGR
protein stability index: 0.626 ± 0.077

RNKHREEIERQT
protein stability index: 0.672 ± 0.031

PSLNNTMLKENK
protein stability index: 0.62 ± 0.061

VAWSACRLSLWG
protein stability index: 0.889 ± 0.016

RSFPPPPARSLP
protein stability index: 0.711 ± 0.039

LLVLHVFPLASH
protein stability index: 0.553 ± 0.035

YSIAYGVLWRYR
protein stability index: 0.5687 ± 0.0051

FQPPARATFLPV
protein stability index: 0.668 ± 0.031

EAKKKKRRDRKE
protein stability index: 0.621 ± 0.029

SSWRVPLSVLPI
protein stability index: 0.67 ± 0.014

LLAGGDVSGVGV
protein stability index: 0.695 ± 0.015

KIPEQRISKTKK
protein stability index: 0.745 ± 0.011

RLVHSRPPPFAS
protein stability index: 0.794 ± 0.13

GLGSSVLQVGVR
protein stability index: 0.689 ± 0.056

VRPFTLLSSYSV
protein stability index: 0.644 ± 0.028

PRHPPTHLIPKT
protein stability index: 0.615 ± 0.034

VRVYLSQNSRFG
protein stability index: 0.723 ± 0.066

RCVRLSISILRP
protein stability index: 0.586 ± 0.038

GLVWLGFWCYPL
protein stability index: 0.55646 ± 6.9e-05

ELELDRTEWVTI
protein stability index: 0.799 ± 0.05

LFLSIRRFRCRL
protein stability index: 0.58 ± 0.057

GSHGRLSWHVSR
protein stability index: 0.7008 ± 0.00074

KKIEAKGMRNDS
protein stability index: 0.599 ± 0.055

KIKTIKKHKKKY
protein stability index: 0.713 ± 0.056

SLGVVSHGASRP
protein stability index: 0.693 ± 0.027

QSWEDILKINEE
protein stability index: 0.757 ± 0.011

RRSLSVYPRFRT
protein stability index: 0.714 ± 0.037

SRLKAPADTDPN
protein stability index: 0.7 ± 0.015

PTPSDRLPPPSH
protein stability index: 0.712 ± 0.0098

AGPGMARERYFY
protein stability index: 0.634 ± 0.046

SERKAKAEVAEA
protein stability index: 0.692 ± 0.064

LFRPTPPSFAPP
protein stability index: 0.683 ± 0.048

ITLSLGRQQIEL
protein stability index: 0.654 ± 0.013

PLSLSSPPLFLL
protein stability index: 0.639 ± 0.0006

SPSTRWPTVQTR
protein stability index: 0.662 ± 0.0098

YLALSAPKERTH
protein stability index: 0.703 ± 0.033

HSLRPPPRHQQK
protein stability index: 0.689 ± 0.02

CPRRVAVAGETS
protein stability index: 0.697 ± 0.044

FPLPPLPPVPPP
protein stability index: 0.632 ± 0.059

IFKSLEKKTKRV
protein stability index: 0.766 ± 0.0086

WGVGVGGRMRPH
protein stability index: 0.707 ± 0.044

VTEGVGGGKGRG
protein stability index: 0.597 ± 0.056

PPLPPPSSPLFP
protein stability index: 0.714 ± 0.087

LLCHLSPSSSPI
protein stability index: 0.786 ± 0.068

IQRIPSGSGRVR
protein stability index: 0.736 ± 0.058
